Test results as given in patent US6958240, “Inhibition of major groove DNA binding proteins by modified polyamides” (California Instiute of Technology).
Substitutions are numbered along the chain they refer to.

Assays:
[1] = target: T1, GCN4 (222-281), bZIP DNA-binding domain (UniProt P03069 P03069:222-281); test: EMSA; bound near saturation at 200 nM GCN4; 10 mM bisTris pH 7.0, 100 mM NaCl, 1 mM DTT, 1 mM EDTA, 50 ug/mL poly(dI-dC), 22 C; inhibited by polyamides 3, 5 and 13, not by 1 or 4; settings: protein: synthetic; tags: none; prepared by solid phase peptide synthesis; chain copies: 2 (inferred); label: 5'-32P
Experimental: (§1) For gel mobility shifts, polyamide was incubated with radiolabeled synthetic DNA duplex (10 kcpm) in 40 µL reaction volumes of bisTris (10 mM, pH 7.0), NaCl (100 mM), DTT (1 mM), EDTA (1 mM), and poly(dI-dC)·poly(dI-dC) (50 µg/mL) for 16 hours at 22° C. (20 mM MOPS, pH 7.0, 140 mM KCl, 10 mM NaCl, 1 mM MgCl_2, 1 mM spermine was used to model ionic conditions in vivo). GCN4 (222–281) was added and equilibrated for 30 minutes. Loading buffer (15% Ficoll, 0.025% bromophenol blue) (10 µL) was added and 10 µL was immediately loaded onto a running 8% (29:1, acrylamide:bis-acrylamide) polyacrylamide gel (0.5×TBE, 280 V, 0.8 mm, 13 cm). Sufficient separation of the free DNA and the DNA·GCN4 (222–281) complexes was achieved within 45 minutes. Gels were dried and exposed to a storage phosphor screen (Molecular Dynamics) (Johnston, et al. (1990) *Electrophoresis* 11, 355).
(§2) ImPyPyPy-γ-PyPyPyPy-β-polyamides (1 and 3) target the six base pair 5'-TGTTAT-3' site adjacent to the GCN4 binding site of ARE-1 (FIG. 6). ImImPyPy-γ-ImPyPyPy-β-polyamides (2 and 4) were designed to bind 5'-TGGTCT-3' adjacent to the GCN4 site in ARE-2 (FIG. 6).
(§3) The ability of polyamides to inhibit GCN4 (222–281) binding was evaluated using the gel mobility shift assay. […]

[2] = target: T1, GCN4 (222-281), bZIP DNA-binding domain; test: EMSA; bound near saturation at 200 nM GCN4; same buffer, 22 C; inhibited by matched polyamides 4 and 6, not by 2 or 3; settings: protein: synthetic; tags: none; prepared by solid phase peptide synthesis; chain copies: 2 (inferred); label: 5'-32P
Experimental: as §1, §2, §3

T1 sequence (P03069 222-281, one chain of several): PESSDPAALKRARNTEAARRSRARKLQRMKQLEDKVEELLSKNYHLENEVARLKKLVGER

B1: ARE-1 (dsDNA)
DNA 1: CCGGATCCATGGTTGCTGACTAATTGTTATCCTCTAGAGTCGACC
DNA 2: GGTCGACTCTAGAGGATAACAATTAGTCAGCAACCATGGATCCGG
B1: binds [1].

B2: ARE-2 (dsDNA)
DNA 1: B1 DNA 1 with T27G, A29C
DNA 2: B1 DNA 2 with T17G, A19C
B2: binds [2].
